Results as given in the Human Domainome abundance scans (Beltran et al. 2025).
± gives the uncertainty stated by the source.

B1: Ankyrin repeat and SOCS box protein 14, residues 532 to 572; numbered along this chain, A6NK59 (parent)
chain: RSLKHLCRLKIRKCMGRLHLRCPVFMSFLPLPNRLKAYVLY

Variants of: B1
Experiment: abundance fitness (aPCA) (normalised: wild type 0, dead -1); higher = more abundant; growth selection in yeast, the domain comes from the species named
Details: Homo sapiens

Abundance fitness: each site, then its substitutions
R17: S 0.227 ± 0.051, G 0.293 ± 0.048, I -0.203 ± 0.42, Y 0.506 ± 0.11, T -0.038 ± 0.063, A 0.371 ± 0.054, P -0.06 ± 0.082, E 0.103 ± 0.053, Q 0.13 ± 0.07, C 0.153 ± 0.12, W 0.722 ± 0.053, N -0.326 ± 0.15, M 0.079 ± 0.085, H 0.104 ± 0.086, D -0.07 ± 0.23, L 0.17 ± 0.065, F 0.551 ± 0.24, V 0.213 ± 0.05, K 0.046 ± 0.068
L20: E 0.249 ± 0.069, T 0.069 ± 0.24, D 0.3 ± 0.39, R -0.348 ± 0.069, V -0.233 ± 0.12, K 0.101 ± 0.1, F -0.026 ± 0.069, S -0.093 ± 0.057, G -0.089 ± 0.06, W -0.285 ± 0.07, M -0.098 ± 0.1, A 0.083 ± 0.051, Y -0.655 ± 0.12, I -0.308 ± 0.28, Q -0.087 ± 0.064, C -0.296 ± 0.12
M26: C -0.013 ± 0.19, G 0.072 ± 0.044, D -0.004 ± 0.085, P -0.002 ± 0.068, L 0.078 ± 0.051, Y -0.207 ± 0.23, R -0.047 ± 0.051, E 0.194 ± 0.059, I -0.038 ± 0.14, S 0.018 ± 0.053, A -0.08 ± 0.057, H 0.113 ± 0.17, W 0.118 ± 0.058, K -0.026 ± 0.051, T -0.002 ± 0.053, Q -0.154 ± 0.064
I11: V -0.17 ± 0.063, K -0.858 ± 0.2, R -0.956 ± 0.081, P -0.675 ± 0.065, G -0.68 ± 0.073, Q -0.992 ± 0.13, C -1.05 ± 0.13, L -0.09 ± 0.067, W 0.023 ± 0.056, E -0.953 ± 0.17, T -0.722 ± 0.18, A -0.613 ± 0.071
F25: C -0.449 ± 0.21, V 0.033 ± 0.059, K 0.089 ± 0.076, A -0.178 ± 0.052, Q -0.123 ± 0.11, I 0.316 ± 0.14, M -0.042 ± 0.073, S -0.095 ± 0.054, H -0.447 ± 0.086, G -0.048 ± 0.045, P 0.074 ± 0.076, D 0.197 ± 0.078, L 0.19 ± 0.067, T -0.243 ± 0.071, R -0.116 ± 0.051
K10: L 0.445 ± 0.051, A 0.352 ± 0.049, M 0.439 ± 0.078, G -0.066 ± 0.05, C -0.193 ± 0.087, V 0.406 ± 0.052, R -0.393 ± 0.048, Q -0.107 ± 0.065, E -0.208 ± 0.053, D -0.319 ± 0.17, Y 0.168 ± 0.11, T 0.039 ± 0.057, H -0.559 ± 0.27
M15: P -0.671 ± 0.1, Y -0.701 ± 0.33, S -0.612 ± 0.13, V -0.126 ± 0.074, E -0.738 ± 0.088, A -0.204 ± 0.048, D -1 ± 0.15, F -0.16 ± 0.23, Q -0.576 ± 0.077, R -0.6 ± 0.082, G -0.367 ± 0.053, W 0.132 ± 0.056, H -0.794 ± 0.17, L 0.202 ± 0.055, C -0.319 ± 0.091, T -0.383 ± 0.07
G16: C -0.269 ± 0.065, L 0.102 ± 0.052, P -0.105 ± 0.061, K 0.092 ± 0.089, R 0.121 ± 0.045, Q 0.356 ± 0.05, E 0.355 ± 0.064, H 0.024 ± 0.077, T 0.12 ± 0.056, D 0.084 ± 0.31, F -0.152 ± 0.094, N 0.231 ± 0.15, W -0.058 ± 0.057
R12: P -0.235 ± 0.079, V -0.071 ± 0.075, H -0.662 ± 0.47, A -0.261 ± 0.06, L -0.063 ± 0.072, K 0.129 ± 0.065, M 0.083 ± 0.072, T -0.224 ± 0.085, D -0.03 ± 0.17, C -0.249 ± 0.099, S -0.178 ± 0.1, W -0.201 ± 0.068, I 0.099 ± 0.32, Q -0.168 ± 0.065, G -0.262 ± 0.042
L9: Q 0.156 ± 0.089, P -0.866 ± 0.18, T 0.118 ± 0.089, D 0.13 ± 0.12, R -0.205 ± 0.048, A 0.003 ± 0.049, S 0.012 ± 0.052, M 0.076 ± 0.16, G -0.084 ± 0.049, H -0.089 ± 0.072, K -0.234 ± 0.088, C 0.119 ± 0.29, E 0.308 ± 0.076, V -0.22 ± 0.055, I 0.08 ± 0.13, W -0.235 ± 0.051
S27: E -0.006 ± 0.057, T -0.247 ± 0.07, K 0.078 ± 0.13, R 0.042 ± 0.051, L -1.09 ± 0.14, Y -1.05 ± 0.26, D -0.054 ± 0.1, N 0.019 ± 0.16, C -0.536 ± 0.33, G -0.075 ± 0.049, P -0.386 ± 0.071, A -0.059 ± 0.058, Q -0.085 ± 0.051, M -0.892 ± 0.15, V -0.709 ± 0.15, W -0.156 ± 0.061
